± gives the uncertainty stated by the source.

The nature of this data set: protein stability index of a GFP-peptide fusion (yeast GPS) (PSI 1-4); higher = more stable; sorted into four equal gates, so the index is relative within each strain. Put shortly:
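Yeast carrying a pooled library were grown to mid-log phase in leucine-free medium. Each library plasmid expresses Cherry and has a tiled 17-residue yeast protein peptide fused downstream of GFP. Cells were sorted into four equal gates by GFP/Cherry ratio, and plasmids from each gate were PCR-amplified, Illumina-sequenced and assigned to strains by barcode. Summing, across gates, the read frequency times the gate number gave each peptide's protein stability index.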

As for VVEKKTVGSSNGGLIHV [RPO21], the protein stability index came out at 2.97 ± 0.081 (doa10∆), 3.07 ± 0.079 (pdr5∆), 2.8 ± 0.053 (san1∆) and 3 ± 0.055 (ubr1∆).

As for VVRAASSLASQDVDFYK [RRP6], the protein stability index turned out to be 2.13 ± 0.066 (doa10∆), 2.04 ± 0.057 (pdr5∆), 3.06 ± 0.16 (san1∆) and 1.48 ± 0.089 (ubr1∆).

Consider VVVDTVECAQHCIDYLR [SMC4], for which the protein stability index is, setting by setting: (doa10∆) 3.06 ± 0.11; (pdr5∆) 2.79 ± 0.22; (san1∆) 3.26 ± 0.074; (ubr1∆) 3.01 ± 0.1.

For VYRFVTENAIEEKVIER [ISW2], the protein stability index was 2.42 ± 0.11 (doa10∆), 2.46 ± 0.14 (pdr5∆), 2.5 ± 0.25 (san1∆) and 2.7 ± 0.063 (ubr1∆).

Consider WADIFAKALDGQNLKDL [RPP1A], for which the protein stability index was 3.08 ± 0.11 (doa10∆), 3.31 ± 0.13 (pdr5∆), 2.58 ± 0.24 (san1∆) and 2.94 ± 0.2 (ubr1∆).

With WAMQGISYLQEVQCTST [PCI8], the protein stability index worked out at 3.32 ± 0.15 (doa10∆), 3.06 ± 0.13 (pdr5∆), 2.19 ± 0.16 (san1∆) and 3.02 ± 0.099 (ubr1∆).

With WAVISAFFREKGLVSQQ [RPB2], the protein stability index is 3.38 ± 0.14 (doa10∆), 3.46 ± 0.1 (pdr5∆), 3.29 ± 0.078 (san1∆) and 3.14 ± 0.078 (ubr1∆).

For WCCRSGSAADTQAIADI [PRE3], the protein stability index reads like this: (doa10∆) 2.89 ± 0.12; (pdr5∆) 3.03 ± 0.099; (san1∆) 2.85 ± 0.11; (ubr1∆) 2.93 ± 0.077.

For WDGVIPTPAIIKPKPLW [RPO21], the protein stability index (doa10∆) is 1.88 ± 0.099, the protein stability index (pdr5∆) came out at 2.08 ± 0.092, the protein stability index (san1∆) is 2.41 ± 0.096 and the protein stability index (ubr1∆) stood at 2.06 ± 0.12.

With WDHPVIAGVITRSKRLS [CSN12], the protein stability index came out at 2.86 ± 0.17 (doa10∆), 2.82 ± 0.11 (pdr5∆), 3.13 ± 0.11 (san1∆) and 3.02 ± 0.068 (ubr1∆).

For the sequence WDYLQLTVAMYINSDSV [RPO31], the protein stability index is, setting by setting: (doa10∆) 1.32 ± 0.071; (pdr5∆) 1.34 ± 0.086; (san1∆) 1.64 ± 0.25; (ubr1∆) 1.58 ± 0.071.

For WHGVHRNPARLMETLRT [RPB2], the protein stability index amounted to 1.35 ± 0.073 (doa10∆), 1.3 ± 0.066 (pdr5∆), 1.55 ± 0.18 (san1∆) and 1.2 ± 0.045 (ubr1∆).

Take WIWDMNVHGSLEPFLLM [BRR2]: the protein stability index by setting is: (doa10∆) 1.61 ± 0.06; (pdr5∆) 2.08 ± 0.078; (san1∆) 1.72 ± 0.2; (ubr1∆) 1.81 ± 0.077.

Regarding WKAPSSIVLDSEHFDVN [DIS3], the protein stability index runs as follows: (doa10∆) 3.14 ± 0.062; (pdr5∆) 3.47 ± 0.064; (san1∆) 3.28 ± 0.056; (ubr1∆) 3.33 ± 0.052.

For WKSPEWIQVFGLRTENV [MED6], the protein stability index was 2.14 ± 0.084 (doa10∆), 2.22 ± 0.058 (pdr5∆), 2 ± 0.13 (san1∆) and 2.35 ± 0.072 (ubr1∆).

In turn, WLIEGKLYVDAVHSIIA [YDL116W/NUP84] registered a protein stability index (doa10∆) of 1.2 ± 0.18, a protein stability index (pdr5∆) of 1.32 ± 0.15, a protein stability index (san1∆) of 1.07 ± 0.28 and a protein stability index (ubr1∆) of 1.1 ± 0.095.

Take WLNGKMDSKGKITIGIQ [RGR1]: the protein stability index came to 3.69 ± 0.12 (doa10∆) and 3.47 ± 0.21 (pdr5∆).

Turning to WPIVNSKVYFNNQSKEK [RPN12], the protein stability index came to 2.87 ± 0.15 (doa10∆), 2.78 ± 0.15 (pdr5∆), 2.67 ± 0.21 (san1∆) and 3.03 ± 0.13 (ubr1∆).

As for WQEYSSVFKGGMQNLIK [SRP14], the protein stability index reads like this: (doa10∆) 3.1 ± 0.12; (pdr5∆) 3.44 ± 0.13; (san1∆) 2.92 ± 0.14; (ubr1∆) 3.16 ± 0.17.

WQGKPVFIRHRTPHEIQ [RIP1] had a protein stability index (pdr5∆) of 2.24 ± 0.28 and a protein stability index (ubr1∆) of 1.68 ± 0.17.

As to WQVIITDDQGRVIDDNN [SIR3], the protein stability index amounted to 3.49 ± 0.11 (doa10∆), 3.43 ± 0.1 (pdr5∆), 3.31 ± 0.08 (san1∆) and 3.52 ± 0.073 (ubr1∆).

Consider WRAHDSSIVAIDWASPE [YGL100W/SEH1], for which the protein stability index was determined as 2.55 ± 0.092 (doa10∆), 2.8 ± 0.1 (pdr5∆), 2.83 ± 0.078 (san1∆) and 2.79 ± 0.068 (ubr1∆).

As for WRFLQILRNGIDYLQRN [POP1], the protein stability index (doa10∆) is 3.05 ± 0.059, the protein stability index (pdr5∆) is 2.82 ± 0.054, the protein stability index (san1∆) came out at 2.97 ± 0.052 and the protein stability index (ubr1∆) was 2.72 ± 0.048.

Regarding WSCIVVENWIIDDKGVL [ITC1], the protein stability index is, setting by setting: (doa10∆) 2.18 ± 0.058; (pdr5∆) 2.72 ± 0.08; (san1∆) 2.71 ± 0.12; (ubr1∆) 2.95 ± 0.063.

Regarding WSWDIAVDNCAICRNHI [HRT1], the protein stability index (ubr1∆) amounted to 2.04 ± 0.23.

WTELCQREFKEIMEERN [NNF1]: the protein stability index is, setting by setting: (doa10∆) 2.98 ± 0.21; (pdr5∆) 3.41 ± 0.16; (san1∆) 3.13 ± 0.072; (ubr1∆) 3.2 ± 0.074.

WTRGTGLMSANNIIAEG [FAS2]: the protein stability index reads like this: (doa10∆) 2.98 ± 0.096; (pdr5∆) 2.85 ± 0.086; (san1∆) 3.06 ± 0.093.

The values are drawn from the supplement of paper PMC9732359.
